Laboratory results as given in patent US20230140200A1, “COMPOSITIONS AND METHODS FOR DETECTING CELLS UNDERGOING FERROPTOSIS USING AN ANTIBODY” (THE TRUSTEES OF COLUMBIA UNIVERSITY IN THE CITY OF NEW YORK, priority 2020, published 2023).
Entries after “also recorded” stand apart in the source; their conditions may differ.

Assays:
[1] = biological target: T1, transferrin receptor protein 1 (Homo sapiens, UniProt P02786); test: Immunoprecipitation-mass spectrometry antigen identification; format: binding; conditions: HT-1080 cell lysate, IP-MS
T1 construct: endogenous in cells; host or cells: HT-1080
Procedure: HT-1080 cells were seeded in DMEM (Corning 10-013-CM) and 10% Hi-FBS with 1% penicillin and streptomycin (PS) with 1% MEM Non-Essential Amino Acids Solution (100×) (Thermo Fisher Scientific 11140-076) 16 h prior to use. DMSO or 1 μM of RSL3 was added and incubated for 4 h. Following treatment, the medium was aspirated from each dish and cells were washed twice with PBS. Cells were lysed with 70 μl lysis buffer (RIPA buffer from ThermoFisher, cat. 89900, 1 mM EDTA, 1 mM PMSF, 1× Halt™ protease inhibitor cocktail from ThermoFisher, cat. 78430 and 1× Halt™ phosphatase inhibitor cocktail from ThermoFisher, cat. 78426). Unlysed cells and debris were pelleted for 15 min at 16,000×g at 4° C. The samples were incubated with 10 μg of 3F3 FMA overnight at 4° C. with shaking. The next day, Thermo Scientific Pierce Protein AG Magnetic Beads (Thermo Fisher Scientific 88802) were washed with TBS with 0.05% Tween 20 (wash buffer) and then were incubated with sample/antibody mixture for 1 h with mixing. The beads were collected with a magnetic stand and then washed with wash buffer for three times. The beads were used for mass spectrometry.
Trypsin digestion was performed overnight at 37° C. […] CID fragmentation was applied with 35% collision energy and resulting fragments were detected using the rapid scan rate in the ion trap. […]
Raw mass spectrometric data were analyzed using MaxQuant v. […]

Huh-7 cells = test: Immunofluorescence in Huh-7 cells; format: cell-based; conditions: 1 μM RSL3, 4 h
HT-1080 cells = test: Flow cytometry staining without permeabilization; format: cell-based, human; conditions: vs DMSO
A-673 cells = test: Immunofluorescence in A-673 cells; format: cell-based, human; conditions: 1 μM RSL3, 4 h

T1 sequence (P02786 whole entry): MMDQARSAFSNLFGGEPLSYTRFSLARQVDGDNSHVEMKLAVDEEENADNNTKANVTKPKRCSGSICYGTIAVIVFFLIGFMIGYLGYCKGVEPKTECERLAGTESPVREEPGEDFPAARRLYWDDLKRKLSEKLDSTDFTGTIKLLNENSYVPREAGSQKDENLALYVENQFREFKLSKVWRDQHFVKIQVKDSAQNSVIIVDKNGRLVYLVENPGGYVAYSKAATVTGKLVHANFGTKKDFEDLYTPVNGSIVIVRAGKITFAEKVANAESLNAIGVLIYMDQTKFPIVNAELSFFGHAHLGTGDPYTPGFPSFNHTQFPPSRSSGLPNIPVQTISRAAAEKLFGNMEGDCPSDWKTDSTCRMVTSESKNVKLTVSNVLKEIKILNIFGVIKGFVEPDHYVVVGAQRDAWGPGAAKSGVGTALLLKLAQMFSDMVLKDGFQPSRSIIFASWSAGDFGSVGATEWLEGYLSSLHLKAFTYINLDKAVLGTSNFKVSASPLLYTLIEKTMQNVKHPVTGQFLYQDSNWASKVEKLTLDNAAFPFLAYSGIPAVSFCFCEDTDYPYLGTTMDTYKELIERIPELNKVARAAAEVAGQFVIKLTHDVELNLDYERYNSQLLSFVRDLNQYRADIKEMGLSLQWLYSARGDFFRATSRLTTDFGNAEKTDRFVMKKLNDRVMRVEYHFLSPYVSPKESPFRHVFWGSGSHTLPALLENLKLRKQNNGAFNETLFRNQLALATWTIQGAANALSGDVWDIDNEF

- amino acid coverage of TfR1 [1]: 53%
- confidence of identification of transferrin receptor protein 1 as target antigen [1]: 63%
B1: 3F3-FMA: Murine monoclonal IgG1 raised against ferroptotic membrane fractions; antigen is transferrin receptor protein 1 (TfR1) (antibody, V domains shown)
VH: EVLLQQSGTELVRPGALVKLSCKASGFNIQDLYIHWVKQRPEQGLEWIGWIDPETDNTIYDPKFQGKASITADTSSNTAYLQLSSLTSEDTAMYYCSTGLLQWYFDVWGAGTAVTVSS
VL: DIVMTQSPSSLAMSIGQKVTMRCKSSQSLLNSYNQKNCLAWYQQKPGQSPKLLLYFVSTRESGVPDRFIGSGSGTDFTLTISSVQAEDLADYFCQQHYSTPLTFGAGTKLELK
- 3F3-FMA staining upon ferroptosis induction (Huh-7 cells): concentrated at the cell boundaries and became brighter
- antibody staining intensity by flow cytometry in RSL3-treated cells (HT-1080 cells; 1 μM RSL3, 4 h): increased intensities
- antibody staining intensity by flow cytometry in STS-induced apoptosis (HT-1080 cells; 1 μM STS, 6 h): decreased intensity; also recorded: decreased intensities
- 3F3-FMA staining upon ferroptosis induction (A-673 cells): concentrated at the cell boundaries and became brighter
